Measured values reported in patent publication US12144869B2, “Anti-ROR1 antibody conjugates, compositions comprising anti ROR1 antibody conjugates, and methods of making and using anti-ROR1 antibody conjugates” (Sutro Biopharma, Inc., priority 2022, dated 2024).

Key:
TNBC PDX tumors = test: TNBC PDX models, single agent or combination with olaparib; format: in vivo, athymic nude mice; conditions: CTG-0437, CTG-1017, and CTG-2055; single agent olaparib 50 mg/kg p.o. qd×28
Text: The activity of Conjugate 46 as a single agent or in combination with the PARP inhibitor olaparib was additionally assessed in TNBC PDX models. Briefly, PDX tumors, spanning varying levels of ROR1 expression and sensitivity to olaparib, were passaged in athymic nude Fox1^nu mice before being processed into tumor fragments for subcutaneous implantation into the hind flank of mice for study initiation. When tumors reached a volume of around 150-300 mm^3, the mice were randomized and enrolled into the study. Tumor-bearing mice were administered up to three weekly doses (qw×3) of Conjugate 46 i.v. at 5 mg/kg and up to twenty-eight daily doses (qd×28) of olaparib p.o. at 50 mg/kg.
Combination treatment with Conjugate 46 and olaparib (50 mg/kg, qd×28) is conducted using a 2 mg/kg, qw×3 dosing regimen for Conjugate 46. The combination therapy is assessed in six TNBC PDX models as described in Example 26.

[1] = system: Immunoglobulin (Ig), Frizzled (Fz), and Kringle (Kr) domains of ROR1; test: Epitope binning ELISA on ROR1 domains; format: binding; conditions: Table 6
Text: Antibody binding was detected via HRP-conjugated anti-human Fc antibodies (Jackson Immunoresearch) and detection with SuperSignal ELISA Pico Chemiluminescent Substrate (Pierce).

[2] = Differential scanning fluorimetry (protein thermal shift; TM1/TM2); format: physicochemical; conditions: Table 11; melting temperature of the Fab domain
Outline: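 Protein at 0.2-2 mg/mL was mixed 1:1 with SYPRO Orange in PBS and heated to 95° C. at ~1.5° C. per minute while fluorescence was monitored, in quadruplicate. TM1 is Fc (CH2) unfolding and TM2 is Fab unfolding.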

human ROR1-Fz = molecular target: T1, human ROR1-Fz (Homo sapiens, UniProt Q01973); test: Biacore off-rate and kinetic analysis, ROR1-Fz; format: binding; conditions: Table 11; SP34 light chain
T1 construct: Frizzled (Fz, residues 165-305); His6 (C); purchased Acro Biosystems; host or cells: HEK293
Outline: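 Anti-ROR1 antibodies captured on anti-human Fc surface; recombinant hROR1 ECD or ROR1-Fz analyte flowed at 100, 50, 25, 6.25, 1.5625 nM plus 0 nM, 180 s association, 600 s dissociation, 25° C., HBS-EP+ buffer. KD from ratio of rate constants, 1:1 Langmuir fit.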

[3] = molecular target: T2, HCT116 cells overexpressing human ROR1 (HCT116-hRor1) (Homo sapiens, UniProt Q01973); test: FACS cell binding on HCT116-hROR1; conditions: Table 11, SP34 light chain
T2 construct: expressed in transfected cells; host or cells: HCT116 (clone HCT116-hRor1-D02)
Text: Ntera-2, MDA-MB-231, MCF7, HCT116 and Mino cells were obtained from ATCC. HCT116-hRor1-D02 clone was generated by transfecting HCT116 cells with a plasmid containing human Ror1 cDNA sequence and selected for highest stable expression of hRor1 on the cell surface. MDA-MB-231, MCF7, HCT116 and HCT116-Ror1 cell were maintained in Ham's F-12 high glucose DMEM (50-50) (Cellgro-Mediatech; Manassas, VA) supplemented with 10% heat-inactivated fetal bovine serum (Hyclone; Thermo Scientific; Waltham, MA), 1% Penicillin/Streptomycin (Cellgro-Mediatech; Manassas, VA) and 2 mmol/L-glutamax (Life Technology; Carlsbad, CA). Mino cells were maintained in RPMI-1640 medium (Cellgro-Mediatech; Manassas, VA) supplemented with 20% heat-inactivated fetal bovine serum (Hyclone; Thermo Scientific; Waltham, MA), 1% Penicillin/Streptomycin (Cellgro-Mediatech; Manassas, VA) and 2 mmol/L-glutamax (Life Technology; Carlsbad, CA).
Variants with expression levels>250 nM were tested in a fluorescence-activated cell sorting (FACS) cell-binding assay. […]
A mix of ROR1 positive and negative cells was prepared as follows. […] Cells were then washed 2× with FACS buffer and fixed for 10 minutes in 200 μl PBS with 2% PFA prior to fluorescence detection. […] Mean Fluorescence Intensity of ROR1 antibody binding was analyzed using FlowJo® software (Tree Star, Inc.).

O=C(c1cc(Cc2n[nH]c(=O)c3ccccc23)ccc1F)N1CCN(C(=O)C2CC2)CC1 [olaparib]
tumor growth suppression (TNBC PDX tumors): moderate tumor growth suppression

B1: SRP2196 (antibody, V domains shown)
VH: EVQLVESGGGLVQPGGSLRLSCAASGFNITGYYIHWVRQAPGKGLEWVGYISPNSGSTYYADSVKGRFTISADTSKNTAYLQMNSLRAEDTAVYYCARDSRRYVRPFDYWGQGTLVTVSS
VL: QAVVTQESALTTSPGETVTLTCRSSTGAVTTSNYANWVQEKPDHLFTGLIGGTNKRAPGVPARFSGSLIGDKAALTITGAQTEDEAIYFCALWYSNLWVFGGGTKLTVL
modifications: Synthetic: 1944-A07; VH; Synthetic: SP34 ; VL
Domain binding by ELISA [1]: Fz

B2: SRP2196-B07 (antibody, V domains shown)
VH: EVQLVESGGGLVQPGGSLRLSCAASGFNITGYHIHWVRQAPGEGLEWVGYISPNSGATYYADSVEGRFTISADTSKNTAYLQMHSLRAEDTAVYYCTRDSRRYVRGWDYWGQGTLVTVSS
VL: QAVVTQESALTTSPGETVTLTCRSSTGAVTTSNYANWVQEKPDHLFTGLIGGTNKRAPGVPARFSGSLIGDKAALTITGAQTEDEAIYFCALWYSNLWVFGGGTKLTVL
TM2 (° C.) [2]: 69 °C | Biacore human ROR1-Fz ka (human ROR1-Fz): 185000 M⁻¹ s⁻¹ | Biacore human ROR1-Fz kd (human ROR1-Fz): 0.000269 s⁻¹ | Kd (human ROR1-Fz): 1450 pM | HCT 116-hROR1 Binding Bmax (MFI) [3]: 15139 MFI | Kd ([3]; read-out: HCT 116-hROR1 Binding Kd): 300 pM
